The target in the experiment is MbNbF3^c7HopQ (H. pylori). The experiment can be described thus: BLI.

This is an account of results in publication PMC7611088 (Nature methods, 2021).

B1: membrane scaffold protein MSP1D1 (other)
chain: STFSKLREQLGPVTQEFWDNLEKETEGLRQEMSKDLEEVKAKVQPYLDDFQKKWQEEMELYRQKVEPLRAELQEGARQKLHELQEKLSPLGEEMRDRARAHVDALRTHLAPYSDELRQRLAARLEALKENGGARLAEYHAKATEHLSTLSEKAKPALEDLRQGLLPVLESFKVSFLSALEEYTKKLNTQ
modifications: biotinylated with EZ-link NHS-Biotin (biotin/antigen ratio 2 - 2.5) for BLI only
For B1, the binding result was “binds”.
